# In patent publication US20220186206, “NOVEL Cas ENZYME AND SYSTEM, AND USE THEREOF” (SHANDONG SHUNFENG BIOTECHNOLOGY CO., LTD., published 2022):
# B1: gRNA gTGW6-3 (UkCpf1 DR + spacer) ; TGW6-3 target (ssRNA ; dsDNA)
# RNA: AUUUCUACUAUUGUAGAUUUGACCUGCCAGGCUAUCCUGAU
# DNA 1: TTGACCTGCCAGGCTATCCTGAT
# DNA 2: ATCAGGATAGCCTGGCAGGTCAA
# B2: gRNA gTGW6-2 (UkCpf1 DR + spacer) ; TGW6-2 target (ssRNA ; dsDNA)
# RNA: AUUUCUACUAUUGUAGAUUUUCACCGACAGCAGCAUGAACU
# DNA 1: TTTCACCGACAGCAGCATGAACT
# DNA 2: AGTTCATGCTGCTGTCGGTGAAA
# B3: gRNA gTGW6-5 (UkCpf1 DR + spacer) ; TGW6-5 target (ssRNA ; dsDNA)
# RNA: AUUUCUACUAUUGUAGAUCGUGUAGCUGGGGCUGUACGUGU
# DNA 1: CGTGTAGCTGGGGCTGTACGTGT
# DNA 2: ACACGTACAGCCCCAGCTACACG
# Molecular target: T1, UkCpf1 (in cells) (uncultivated microorganism (metagenome))
# T1 chain: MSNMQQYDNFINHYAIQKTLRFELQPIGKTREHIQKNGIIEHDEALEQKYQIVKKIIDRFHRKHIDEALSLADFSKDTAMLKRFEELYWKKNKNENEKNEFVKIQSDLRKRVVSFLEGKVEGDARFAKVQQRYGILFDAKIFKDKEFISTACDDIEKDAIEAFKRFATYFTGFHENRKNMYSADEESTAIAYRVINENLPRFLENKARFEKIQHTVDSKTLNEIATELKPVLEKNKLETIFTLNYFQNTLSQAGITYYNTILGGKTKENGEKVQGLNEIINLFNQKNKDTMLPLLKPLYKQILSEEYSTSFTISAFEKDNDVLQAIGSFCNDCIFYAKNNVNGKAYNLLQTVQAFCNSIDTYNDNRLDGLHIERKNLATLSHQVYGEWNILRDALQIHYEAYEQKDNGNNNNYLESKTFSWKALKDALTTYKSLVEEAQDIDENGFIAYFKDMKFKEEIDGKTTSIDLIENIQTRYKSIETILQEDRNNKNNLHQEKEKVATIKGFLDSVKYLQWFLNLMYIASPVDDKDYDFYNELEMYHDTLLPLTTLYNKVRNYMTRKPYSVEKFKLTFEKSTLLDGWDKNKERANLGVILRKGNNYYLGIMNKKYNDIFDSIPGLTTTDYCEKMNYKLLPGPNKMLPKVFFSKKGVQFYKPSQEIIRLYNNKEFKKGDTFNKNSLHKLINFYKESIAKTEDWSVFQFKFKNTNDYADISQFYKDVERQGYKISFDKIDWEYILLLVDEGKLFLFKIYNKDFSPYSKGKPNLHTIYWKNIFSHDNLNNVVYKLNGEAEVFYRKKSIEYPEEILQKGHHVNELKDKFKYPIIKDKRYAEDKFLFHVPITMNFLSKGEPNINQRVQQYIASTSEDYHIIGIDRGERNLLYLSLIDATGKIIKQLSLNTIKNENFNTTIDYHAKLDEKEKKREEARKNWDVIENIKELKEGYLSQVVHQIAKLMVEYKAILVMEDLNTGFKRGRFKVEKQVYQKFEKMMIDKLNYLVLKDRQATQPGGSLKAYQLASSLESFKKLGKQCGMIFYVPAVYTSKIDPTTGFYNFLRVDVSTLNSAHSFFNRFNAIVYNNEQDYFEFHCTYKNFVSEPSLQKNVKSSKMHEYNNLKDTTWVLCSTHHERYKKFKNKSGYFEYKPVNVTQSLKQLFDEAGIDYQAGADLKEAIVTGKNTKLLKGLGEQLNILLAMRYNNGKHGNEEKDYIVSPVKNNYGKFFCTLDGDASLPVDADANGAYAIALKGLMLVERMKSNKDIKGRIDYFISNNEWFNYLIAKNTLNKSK
# Test: cell_activity; rice protoplast; PAM 5'-YYV
row,Binder,activity [% indel]
1,B1,0.57
2,B2,0.39
3,B3,0.73
